Key:
SEC = biological target: the molecule itself; assay: SEC
native gel or EMSA = biological target: the molecule itself; assay: native gel or EMSA
SEC-MALS = biological target: the molecule itself; assay: SEC-MALS

B1: human TMC1 (hsTMC1) fused to GFP (natural protein, UniProt Q8TDI8 1-760, looked up)
chain: MSPKKVQIKVEEKEDETEESSSEEEEEVEDKLPRRESLRPKRKRTRDVINEDDPEPEPEDEETRKAREKERRRRLKRGAEEEEIDEEELERLKAELDEKRQIIATVKCKPWKMEKKIEVLKEAKKFVSENEGALGKGKGKRWFAFKMMMAKKWAKFLRDFENFKAACVPWENKIKAIESQFGSSVASYFLFLRWMYGVNMVLFILTFSLIMLPEYLWGLPYGSLPRKTVPRAEEASAANFGVLYDFNGLAQYSVLFYGYYDNKRTIGWMNFRLPLSYFLVGIMCIGYSFLVVLKAMTKNIGDDGGGDDNTFNFSWKVFTSWDYLIGNPETADNKFNSITMNFKEAITEEKAAQVEENVHLIRFLRFLANFFVFLTLGGSGYLIFWAVKRSQEFAQQDPDTLGWWEKNEMNMVMSLLGMFCPTLFDLFAELEDYHPLIALKWLLGRIFALLLGNLYVFILALMDEINNKIEEEKLVKANITLWEANMIKAYNASFSENSTGPPFFVHPADVPRGPCWETMVGQEFVRLTVSDVLTTYVTILIGDFLRACFVRFCNYCWCWDLEYGYPSYTEFDISGNVLALIFNQGMIWMGSFFAPSLPGINILRLHTSMYFQCWAVMCCNVPEARVFKASRSNNFYLGMLLLILFLSTMPVLYMIVSLPPSFDCGPFSGKNRMFEVIGETLEHDFPSWMAKILRQLSNPGLVIAVILVMVLAIYYLNATAKGQKAANLDLKKKMKMQALENKMRNKKMAAARAAAAAGRQ
stoichiometry N (SEC): 2

B2: purified human TMC1 (hsTMC1) reconstituted into amphipols (natural protein, UniProt Q8TDI8 1-760, looked up)
chain: B1 chain
stoichiometry N (native gel or EMSA): 2

B3: purified mouse TMC1 (mmTMC1) reconstituted into amphipols (natural protein, UniProt Q8R4P5 1-757, looked up)
chain: MLQIQVEEKEEDTEESSSEEEEDKLPRRESLRPKRKRTRDVINEDDPEPEPEDEETRKAREKERRRRLRRGAEEEEEIDEEELERLKALLDENRQMIATVKCKPWKMEKKIEVLKEAKKFVSENEGALGKGKGKKWFAFKMMMAKKWAKFLRDFENFKAACVPWENKIKAIESQFGSSVASYFLFLRWMYGVNMVLFVLTFSLIMLPEYLWGLPYGSLPRKTVPRAEEASAANFGVLYDFNGLAQYSVLFYGYYDNKRTIGWLNFRLPLSYFLVGIMCIGYSFLVVLKAMTKNIGDDGGGDDNTFNFSWKVFCSWDYLIGNPETADNKFNSITMNFKEAIIEERAAQVEENIHLIRFLRFLANFFVFLTLGASGYLIFWAVKRSQEFAQQDPDTLGWWEKNEMNMVMSLLGMFCPTLFDLFAELEDYHPLIALKWLLGRIFALLLGNLYVFILALMDEINNKIEEEKLVKANITLWEANMIKAYNESLSGLSGNTTGAPFFVHPADVPRGPCWETMVGQEFVRLTVSDVLTTYVTILIGDFLRACFVRFCNYCWCWDLEYGYPSYTEFDISGNVLALIFNQGMIWMGSFFAPSLPGINILRLHTSMYFQCWAVMCCNVPEARVFKASRSNNFYLGMLLLILFLSTMPVLYMIVSLPPSFDCGPFSGKNRMFEVIGETLEHDFPSWMAKILRQLSNPGLVIAVILVMVLTIYYLNATAKGQKAANLDLKKKMKQQALENKMRNKKMAAARAAAAAGGQ
stoichiometry N (SEC-MALS): 2

Source: paper PMC6360533 (Neuron, 2018)
